Experimental data as given in US20030166162.

Assays:
[1] = tested on: poly histidine tagged chymosin pro-peptide carp growth hormone fusion protein
[2] = tested on: GST-Chymosin pro-peptide-Hirudin fusion protein

Substance	cleavage of the fusion protein at pH 2, SDS-PAGE and Western blot [1]	cleavage of the fusion protein at pH 2.0, Western blotting (results not shown) [2]	cleavage of the fusion protein at pH 4.5, Western blotting (results not shown) [2]	cleavage of the fusion protein, SDS-PAGE and Western blot [1]
chymosin (Sigma)	the cleavage with chymosin yielded a protein band corresponding to the expected theoretical molecular mass of the cGH (approximately 22 kDa) polypeptide	complete cleavage was also observed when the GST-Pro-Hirudin fusion which was treated at pH 2.0 and supplemented with 2 ug chymosin	apart from treatment at pH 4.5, complete cleavage was also observed	–
enterokinase	–	–	–	cleavage of the fusion protein was observed with enterokinase yielding a protein band corresponding to the calculated molecular mass of the Pro-cGH fusion (26 kDa)
